{
  "source": "patent US8926955B2",
  "about": "“Synthesis of polymer conjugates of indolocarbazole compounds” (priority 2008, dated 2015)",
  "key": {"[1]": {"test_system": "mouse lymphoma L5178Y cells", "assay": "Preliminary cytotoxicity assay in L5178Y cells", "format": "cell-based", "protocol": "A preliminary cytotoxicity assay was performed. Based on the solubility results, the test item was assayed at a maximum dose level of 5000 μg/ml both in the absence and presence of S9 metabolism. A wide range of lower dose levels were included in the treatment series: 2500, 1250, 625, 313, 156, 78.1, 39.1 and 19.5 μg/ml."}, "[2]": {"test_system": "Salmonella typhimurium TA1537, TA98 and TA100", "assay": "Photomutagenicity assay in bacteria (reverse mutation, UV light)", "format": "cell-based", "settings": "up to 5000 μg/plate", "source_text": "(§1) The test item was examined for photomutagenic activity by assaying for reverse mutation to prototrophy in the prokaryotic organisms, Salmonella typhimurium and Escherichia coli, after exposure to light.\n(§2) The three S. typhimurium tester strains, TA1537, TA98 and TA100, and the E. coli tester strain, WP2, were used. The bacteria, co-plated with the test item in soft-agar, were irradiated with various doses of UV light.\n(§3) The procedures adopted were developed by Ames et al., 1975 and revised by Maron and Ames, 1983.\n(§4) The test item was used as a solution in sterile distilled water.\n(§5) The test item was assayed in the toxicity test at a maximum dose level of 5000 μg/plate and at four lower concentrations spaced at approximately half-log intervals: 1580, 500, 158 and 50.0 μg/plate. Two widely-spaced UV doses were selected for each bacterial tester strain on the basis of the maximum tolerated dose.\n(§6) Two independent experiments were performed using the plate incorporation method.\n(§7) The test item was assayed at a maximum dose level of 5000 μg/plate and at four lower dose levels spaced by two-fold dilutions: 2500, 1250, 625 and 313 μg/plate. The prepared plates were exposed to the following UVA and UVB doses (Table 5): […]"}, "Escherichia coli WP2": {"test_system": "Escherichia coli WP2", "assay": "Photomutagenicity assay in bacteria (reverse mutation, UV light)", "format": "cell-based", "settings": "up to 5000 μg/plate", "source_text": "as §1, §2, §3, §4, §5, §6, §7"}, "[3]": {"test_system": "New Zealand White Specific Pathogen Free (SPF) rabbits", "assay": "13 week dermal toxicity study in rabbits with 4 week recovery", "description": "(§8) Three groups, each of 6 male and 6 female New Zealand White Specific Pathogen Free (SPF) rabbits (cf. Table 3: male numbered with even numbers, female numbered with uneven numbers), received the test item by dermal application at dosages of 0.5, 2.5 and 5 mg/animal/day for 13 consecutive weeks (Table 3, group numbers 2-4, respectively). A fourth similarly constituted group received the vehicle alone (purified water) and acted as a control (Table 3, group number 1). Control and high dose groups (Table 3, group numbers 4 and 1, respectively). included 3 additional animals per sex for recovery assessment.\n(§9) The following investigations were performed: daily clinical signs, body weight, food consumption, macroscopic observations of the treatment sites, clinical pathology investigations, terminal body weight, organ weight, post mortem macroscopic observations and histopathological examination.\n(§10) The treatment sites were examined, each day, approximately 3 hours after the start of dosing. Irritation of the sites, when compared to the adjacent untreated skin, was assigned a numerical value according to the table below:"}, "[4]": {"assay": "Toxicokinetics (plasma levels) in 13 week dermal rabbit study", "format": "in vivo", "source_text": "Blood samples were taken from each animal on Day 1 and Week 13 for toxicokinetic evaluations."}, "[5]": {"settings": "rat, in vivo", "description": "(§11) The purpose of this study was to evaluate the toxicity of the test item in rats after daily dermal administration (6 hours exposure) over a period of 13 weeks and to investigate possible recovery from any potential treatment-related effects over a period of 4 consecutive weeks. The toxicokinetic profile was also evaluated.\n(§12) Three groups, each of 10 male and 10 female Sprague Dawley rats (cf. Table 1: male numbered with even numbers, female numbered with uneven numbers) received the test item by dermal application at dosages of 0.5, 2.5 and 5 mg/kg/day for 13 consecutive weeks (Table 1: group numbers 2-4). A fourth similarly constituted group received the vehicle alone (purified water) and acted as a control (Table 1: group number 1). Five additional animals for each sex were included in the high and control groups (Table 1: group numbers 4 and 1, respectively) for recovery assessment. In addition, 3 satellite groups for toxicokinetics, including 9 males and 9 females (Table 2: group numbers 5-8, respectively), and 1 control group, including 3 males and 3 females (Table 2: group number 5), were treated as the main groups for toxicokinetic evaluations."}, "Sprague Dawley rats": {"test_system": "Sprague Dawley rats", "assay": "13 week dermal toxicity study in rats with 4 week recovery", "description": "The purpose of this study was to evaluate the toxicity of the test item in rats after daily dermal administration (6 hours exposure) over a period of 13 weeks and to investigate possible recovery from any potential treatment-related effects over a period of 4 consecutive weeks.\nThree groups, each of 10 male and 10 female Sprague Dawley rats (cf. Table 1: male numbered with even numbers, female numbered with uneven numbers) received the test item by dermal application at dosages of 0.5, 2.5 and 5 mg/kg/day for 13 consecutive weeks (Table 1: group numbers 2-4). A fourth similarly constituted group received the vehicle alone (purified water) and acted as a control (Table 1: group number 1). Five additional animals for each sex were included in the high and control groups (Table 1: group numbers 4 and 1, respectively) for recovery assessment.\nThe treatment sites were examined each day, approximately 3 hours after the start of dosing. Irritation of the sites, when compared to the adjacent untreated skin, was assigned a numerical value according to the table below:"}, "[6]": {"assay": "Toxicokinetics (plasma levels) in 13 week dermal rat study", "description": "as §11, §12"}, "rat": {"test_system": "rat", "assay": "Acute dermal toxicity study in rats", "format": "in vivo", "protocol": "The acute toxicity of the conjugate of Example 3 was investigated following administration of a single dermal dose to the rat.\nA single dose of 2000 mg/kg was administered to a group of 5 male and 5 female animals for a 24 hour period. The day before scheduled dosing the fur was removed from the dorsal surfaces of the trunk over an estimated area of 10% of the total body surface. Care was taken to avoid any damage or abrasion to the skin. The test item was administered topically at a dose volume of 4 ml/kg body weight, just after its preparation. The required aliquot of the formulated test item was spread evenly over a gauze measuring 2.5×2.5 cm. The gauze patch was then placed onto the animal's skin, with the test item in direct contact with the skin. A strip of synthetic film was placed over the treated site and the whole assembly held in place by encircling the trunk of the animal with a length of elastic adhesive bandage. After a period of 24 hours, the tape dressing will be removed. The treated skin site was then gently washed free of any remaining test item using lukewarm water. Throughout the study, all animals will be checked twice daily. Animals were examined for signs of reaction to treatment on dosing, approximately 30 min, 2 and 4 hours after dosing on day 1, then daily for a total of 14 days. Each animal was weighed on the day of allocation to the study, on the day of dosing (day 1) and on days 8 and 15. After a 14 day period all animals were killed and subjected to a necropsy examination."}, "[7]": {"test_system": "New Zealand White Specific Pathogen Free (SPF) rabbits", "settings": "rabbit, in vivo", "description": "as §8, §9, §10"}, "Balb/c 3T3 cells": {"test_system": "Balb/c 3T3 cells", "format": "cell-based", "settings": "for IC50 (neutral red uptake): up to 1000 μg/ml", "protocol": "The potential in vitro phototoxicity of the test item was evaluated by the measurements of neutral red uptake for cellular toxicity on cultures of Balb/c 3T3 cells treated with different doses of the test item and exposed to UVA irradiation. Test item solutions were prepared using Earle's Balanced Salt Solution (EBSS).\nA preliminary dose-range finding experiment in the presence (+UVA) and in the absence (−UVA) of light was undertaken in order to select appropriate dose levels for the main assays. The test item was assayed at a maximum dose level of 1000 μg/ml (the upper limit indicated in the study protocol) and at a wide range of lower dose levels: 500, 250, 125, 62.5, 31.3, 15.6 and 7.81 μg/ml. […] In this case the chemical is considered to be non-phototoxic. The same dose range was used for the main assay.\nA main experiment was performed using the following dose levels: 1000, 500, 250, 125, 62.5, 31.3, 15.6 and 7.81 μg/ml."}, "[8]": {"settings": "0.5, 2.5 and 5 mg/animal/day dermal, 13 weeks"}, "[9]": {"settings": "daily dermal administration over 13 weeks"}, "[10]": {"settings": "0.5, 2.5 and 5 mg/kg/day dermal, 13 weeks"}},
  "note": "“Also recorded” adds a separate entry of the source. Like-named read-outs stand apart in the source and are kept apart here.",
  "data": [
    {"substance": "oxazolidindionic conjugate of K252a with PEG (1892 MW) [test item]", "values": [
      {"measurement": "relative survival", "setting": "[1]; absence of S9, long treatment time, two higher concentrations, % of concurrent negative control", "result": "approximately 60%"},
      {"measurement": "relative survival", "setting": "[1]; absence of S9, short treatment time, several concentrations, no dose relationship", "result": "slight reduction of relative survival"},
      {"measurement": "toxicity", "setting": "[1]; presence of S9, up to 5000 μg/ml", "result": "no relevant toxicity was observed"},
      {"measurement": "reverse mutation (revertant colonies) in the presence of UV light", "setting": "[2]; UVA", "result": "did not induce two-fold increases in the number of revertant colonies; also recorded: does not induce reverse mutation"},
      {"measurement": "toxicity", "setting": "[2]; any UV irradiation dose", "result": "No relevant toxicity was observed"},
      {"measurement": "reverse mutation (revertant colonies) in the presence of UV light", "setting": "Escherichia coli WP2; UVA and UVB", "result": "did not induce two-fold increases in the number of revertant colonies; also recorded: does not induce reverse mutation"},
      {"measurement": "toxicity", "setting": "Escherichia coli WP2; any UV irradiation dose", "result": "No relevant toxicity was observed"},
      {"measurement": "adverse effects", "setting": "[3]; 0.5, 2.5 and 5 mg/animal/day", "result": "No adverse effects were seen at any of the dose levels"},
      {"measurement": "clinical signs", "setting": "[3]; [8]", "result": "no treatment-related clinical signs were observed"},
      {"measurement": "mortality", "setting": "[3]; [8]", "result": "No treatment-related mortality occurred"},
      {"measurement": "absolute and relative organ weight", "setting": "[3]; 13 weeks dermal", "result": "no changes in absolute and relative organ weight of toxicological significance were observed"},
      {"measurement": "body weight", "setting": "[3]; 13 weeks dermal", "result": "No relevant differences in body weight were recorded"},
      {"measurement": "food consumption", "setting": "[3]; 13 weeks dermal", "result": "comparable to controls"},
      {"measurement": "haematology and clinical chemistry", "setting": "[3]; 13 weeks dermal", "result": "no changes of toxicological significance were recorded"},
      {"measurement": "terminal body weight", "setting": "[3]; 13 weeks dermal", "result": "comparable between control and treated groups"},
      {"measurement": "No Observed Adverse Effect Level (NOAEL)", "setting": "[3]; daily dermal administration to rabbits, 13 weeks", "result": 5, "unit": "mg/animal/day"},
      {"measurement": "irritation of treated sites (macroscopic observations)", "setting": "[3]; daily dermal, 13 weeks", "result": "No signs of irritation were observed"},
      {"measurement": "ophthalmic examination", "setting": "[3]; end of the treatment period", "result": "no treatment-related lesions were detected"},
      {"measurement": "accumulation", "setting": "[4]; [9]", "result": "no accumulation occurred"},
      {"measurement": "absorption through the dermal route", "setting": "[4]; rabbit plasma sample analyses", "result": "only minimally absorbed"},
      {"measurement": "absorption", "setting": "[4]; week 13, dermal", "result": "Very low absorption"},
      {"measurement": "plasma levels / incidence of absorption", "setting": "[5]", "result": "a lower incidence of absorption was detected"},
      {"measurement": "adverse effects", "setting": "Sprague Dawley rats; 0.5, 2.5 and 5 mg/kg/day", "result": "No adverse effects were seen at any of the dose levels"},
      {"measurement": "body weight", "setting": "Sprague Dawley rats; [10]", "result": "No relevant differences in body weight were recorded"},
      {"measurement": "clinical signs", "setting": "Sprague Dawley rats; [10]", "result": "no treatment-related clinical signs were observed"},
      {"measurement": "food consumption", "setting": "Sprague Dawley rats; [10]", "result": "comparable to controls"},
      {"measurement": "mortality", "setting": "Sprague Dawley rats; [10]", "result": "No treatment-related mortality occurred"},
      {"measurement": "absolute and relative organ weights", "setting": "Sprague Dawley rats; 13 weeks dermal", "result": "No changes in absolute and relative organ weights of toxicological significance were observed"},
      {"measurement": "clinical chemistry and urinalysis", "setting": "Sprague Dawley rats; 13 weeks dermal", "result": "No changes of toxicological significance were observed"},
      {"measurement": "macroscopic and microscopic observations", "setting": "Sprague Dawley rats; 13 weeks dermal", "result": "No treatment-related changes were noted"},
      {"measurement": "terminal body weight", "setting": "Sprague Dawley rats; 13 weeks dermal", "result": "comparable between control and treated groups"},
      {"measurement": "No Observed Adverse Effect Level (NOAEL)", "setting": "Sprague Dawley rats; daily dermal administration to rats, 13 weeks", "result": 5, "unit": "mg/kg/day"},
      {"measurement": "ophthalmic examination", "setting": "Sprague Dawley rats; end of the treatment period", "result": "No treatment-related lesions were detected"},
      {"measurement": "irritation index at treated sites", "setting": "Sprague Dawley rats; erythema/oedema score 0-4, daily dermal, 13 weeks", "result": 0},
      {"measurement": "haematology", "setting": "Sprague Dawley rats; partial reversibility at end of recovery period", "result": "leucopenia observed in animals of high dose group and in females of medium dose group"},
      {"measurement": "accumulation", "setting": "[6]; [9]", "result": "no accumulation has occurred"},
      {"measurement": "absorption through the dermal route", "setting": "[6]; rat plasma sample analyses", "result": "only minimally absorbed"},
      {"measurement": "abnormalities in the treated site", "setting": "rat; 2000 mg/kg single dermal dose", "result": "No abnormalities were observed in the treated site"},
      {"measurement": "clinical signs", "setting": "rat; 2000 mg/kg single dermal dose", "result": "no clinical signs were observed"},
      {"measurement": "internal abnormalities at necropsy", "setting": "rat; 2000 mg/kg single dermal dose", "result": "No internal abnormalities were found at necropsy"},
      {"measurement": "mortality", "setting": "rat; 2000 mg/kg single dermal dose, 14 day observation", "result": "No mortality occurred"},
      {"measurement": "changes in body weight", "setting": "rat; 2000 mg/kg single dermal dose, end of study", "result": "within the expected range"},
      {"measurement": "toxic effect", "setting": "rat; dermal exposure over 24 hours at 2000 mg/kg", "result": "no toxic effect"},
      {"measurement": "LD50", "setting": "rat; single dermal dose, 24 hour exposure, rat", "result": "greater than 2000 mg/kg"},
      {"measurement": "macroscopic and microscopic observations", "setting": "[7]", "result": "no treatment-related changes were noted"},
      {"measurement": "Photo Irritation Factor (PIF)", "setting": "Balb/c 3T3 cells", "result": "could not be calculated"},
      {"measurement": "mean photo effect (MPE)", "setting": "Balb/c 3T3 cells", "result": 0.089},
      {"measurement": "phototoxicity classification", "setting": "Balb/c 3T3 cells", "result": "non phototoxic"},
      {"measurement": "IC50 (neutral red uptake)", "setting": "Balb/c 3T3 cells; main experiment, both curves (+UV and -UV)", "result": "no IC50 value"},
      {"measurement": "IC50 (neutral red uptake)", "setting": "Balb/c 3T3 cells; preliminary dose-range finding, +UVA and -UVA", "result": "no IC50 value was calculable"}
    ]}
  ]
}
